Results as given in article doi:10.1101/2024.03.27.587050.

Columns and labels:
[1] = target: Chaetomium thermophilum NAT10 (CtNAT10), Sf9 produced recombinant (Chaetomium thermophilum); assay: mass photometry
[2] = target: Chaetomium thermophilum NAT10 (CtNAT10), E.coli produced recombinant (Chaetomium thermophilum); assay: mass photometry

Substance: Chaetomium thermophilum NAT10 (CtNAT10), Sf9 produced recombinant (enzyme)
- stoichiometry N [1]: 2

Substance: Chaetomium thermophilum NAT10 (CtNAT10), E.coli produced recombinant (enzyme)
- stoichiometry N [2]: 2
